Positions count from the first letter of the chain named. Names and notes keep the numbering of the source. Values joined by “and” are separate entries in the source; they are usually repeats but may differ in a detail not shown here. Equal values may be shown once.
Tests used:
[1] = target: T1, mFc-hNKG2D (human, UniProt P26718 73-216); test: SPR Biacore 8K 37 C; mFc-hNKG2D captured on anti-mFc chip, TriNKET as analyte; 1:1 kinetic fit; after 2 wks 40 C at pH 5.0
T1 construct: extracellular domain; Made in house (Dragonfly Tx); the order of tag and ECD follows the name mFc-hNKG2D; also called mFc-tagged human NKG2D; not shown: mouse Fc tag
T1 sequence (looked up): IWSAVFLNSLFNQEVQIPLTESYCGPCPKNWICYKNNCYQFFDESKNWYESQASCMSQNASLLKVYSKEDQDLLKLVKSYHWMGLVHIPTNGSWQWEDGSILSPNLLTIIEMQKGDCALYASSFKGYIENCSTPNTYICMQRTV

[2] = target: T2, Human CLEC12A-His (human, UniProt Q5QGZ9 65-265); test: SPR Biacore 8K 37 C; TriNKET captured on anti-hFc chip, hCLEC12A-His as analyte; 1:1 fit; control sample, n=2
T2 construct: Recombinant soluble protein made in house (Dragonfly Tx); The hCLEC12A spot of the HuProt array is written under this molecule as well; also called hCLEC12A-His; hCLEC12A; not shown: His tag
T2 sequence: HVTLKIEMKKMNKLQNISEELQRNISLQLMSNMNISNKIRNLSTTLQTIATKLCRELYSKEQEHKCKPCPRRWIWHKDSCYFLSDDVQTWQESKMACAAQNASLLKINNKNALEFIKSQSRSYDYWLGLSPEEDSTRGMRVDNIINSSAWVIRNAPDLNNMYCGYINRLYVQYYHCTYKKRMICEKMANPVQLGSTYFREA

[3] = target: T3, mFc-hNKG2D (human, UniProt P26718 73-216); test: SPR; sample after pH 5.0, 40 C, 2 weeks
T3 construct: extracellular domain; Recombinant mFc-tagged NKG2D dimer, made in house; also called human NKG2D; not shown: mouse Fc tag
T3 sequence (looked up): T1 sequence (looked up)

[4] = target: T4, Human CD16a V158 (human, UniProt P08637 17-208, biotinylated); test: SPR; sample after pH 5.0, 40 C, 2 weeks
T4 construct: Bought recombinant receptor; also called hCD16a (V158); hFcγRIIIa V158

[5] = target: T5, Human CLEC12A-His (human, UniProt Q5QGZ9 65-265); test: SPR; sample after pH 5.0, 40 C, 2 weeks
T5 construct: Recombinant soluble protein made in house; also called hCLEC12A-His; hCLEC12A; not shown: His tag
T5 sequence: T2 sequence

[6] = target: T5, Human CLEC12A-His; test: SPR, 37 C, AB0192 captured, hCLEC12A-His analyte
[7] = target: T6, human CLEC12A on cells (HL60, PL21, Ba/F3-hCLEC12A) (human, UniProt Q5QGZ9 1-265); test: flow cytometry, Ba/F3-hCLEC12A cells
T6 construct: Endogenous on the AML lines HL60 and PL21; brought into mouse Ba/F3 cells by retroviral transduction; The cell line stands under assay; also called CLL-1
T6 sequence: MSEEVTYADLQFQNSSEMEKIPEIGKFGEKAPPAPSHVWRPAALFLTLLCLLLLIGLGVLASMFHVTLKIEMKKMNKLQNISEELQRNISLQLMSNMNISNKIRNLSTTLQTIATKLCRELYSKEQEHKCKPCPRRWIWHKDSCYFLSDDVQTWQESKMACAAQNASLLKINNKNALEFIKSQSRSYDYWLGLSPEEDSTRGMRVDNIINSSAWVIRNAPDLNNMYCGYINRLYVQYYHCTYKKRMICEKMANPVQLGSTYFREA

[8] = target: T7, Human CD16a V158 (FcγRIIIa V158) (human, UniProt P08637 17-208, biotinylated); test: SPR; after 4 wks 40C in CST pH 7.0
T7 construct: Bought recombinant receptor; also called hCD16aV; hFcγRIIIa V158

[9] = target: T8, mFc-hNKG2D (recombinant mFc-tagged human NKG2D dimer) (human, UniProt P26718 73-216); test: SPR; after 4 wks 40C in CST pH 7.0
T8 construct: extracellular domain; Made in house; not shown: mouse Fc tag
T8 sequence (looked up): T1 sequence (looked up)

[10] = target: T9, Human CLEC12A-His (recombinant, K244 WT) (human, UniProt Q5QGZ9 65-265); test: SPR, two-state fit (ka1); after low pH hold
T9 construct: Made in house (Dragonfly Tx); also called hCLEC12A; hCLEC12A-His; not shown: His tag
T9 sequence: T2 sequence

[11] = target: T10, Human CD64 (FcγRI) (human, UniProt P12314 16-288, biotinylated); test: SPR 25C, biotinylated hCD64 captured on CAP chip
T10 construct: Bought recombinant receptor; also called hFcγRI; Human FcγRI

[12] = target: T7, Human CD16a V158 (FcγRIIIa V158); test: SPR; after 4 wks 40C in HST pH 6.0
[13] = target: T8, mFc-hNKG2D (recombinant mFc-tagged …); test: SPR; after 4 wks 40C in HST pH 6.0
[14] = target: T11, human CLEC12A expressed on cells (human, UniProt Q5QGZ9 1-265); test: flow cytometry, hCLEC12A+ Ba/F3
T11 construct: Transduced isogenic cells or endogenous expression on AML cells; also called RMA-hCLEC12A; Ba/F3-hCLEC12A
T11 sequence: T6 sequence

T10 sequence (P12314 16-288 limits assumed): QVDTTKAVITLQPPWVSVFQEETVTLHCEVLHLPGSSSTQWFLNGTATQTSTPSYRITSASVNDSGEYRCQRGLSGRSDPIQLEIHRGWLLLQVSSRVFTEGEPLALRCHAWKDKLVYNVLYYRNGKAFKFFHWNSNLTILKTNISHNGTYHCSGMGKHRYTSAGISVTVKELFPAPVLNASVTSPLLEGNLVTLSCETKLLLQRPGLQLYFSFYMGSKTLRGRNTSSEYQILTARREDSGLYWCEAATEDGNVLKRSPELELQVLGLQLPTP
T7 sequence (P08637 17-208 F176V limits assumed): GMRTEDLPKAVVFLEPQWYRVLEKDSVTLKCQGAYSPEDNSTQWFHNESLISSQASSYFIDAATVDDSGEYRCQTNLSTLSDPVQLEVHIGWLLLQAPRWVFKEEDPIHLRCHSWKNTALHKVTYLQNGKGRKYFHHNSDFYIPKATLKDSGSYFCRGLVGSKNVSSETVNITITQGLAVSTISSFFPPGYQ
T4 sequence (P08637 17-208 F176V limits assumed): as above

B1: F3'-1602 TriNKET (bispecific antibody, human IgG1, kappa)
chain: QLQLQESGPGLVKPSETLSLTCTVSGFSLTNYGLHWIRQPPGKCLEWIGVIWSGGKTDYNPSLKSRVTISKDTSKNQFSLKLSSVQAADTAVYYCAKYDYDDSLDYWGQGTLVTVSSGGGGSGGGGSGGGGSGGGGSDIQMTQSPSSLSASVGDRVTITCHASQNINFWLSWYQQKPGKAPKLLIYEASNLHTGVPSRFSGSGSGTRFTLTISSLQPEDIATYYCQQSHSYPLTFGCGTKLEIKGSDKTHTCPPCPAPELLGGPSVFLFPPKPKDTLMISRTPEVTCVVVDVSHEDPEVKFNWYVDGVEVHNAKTKPREEQYNSTYRVVSVLTVLHQDWLNGKEYKCKVSNKALPAPIEKTISKAKGQPREPRVYTLPPCRDELTKNQVSLTCLVKGFYPSDIAVEWESNGQPENNYKTTPPVLVSDGSFTLYSKLTVDKSRWQQGNVFSCSVMHEALHNHYTQKSLSLSPG
heavy: EVQLVESGGGLVKPGGSLRLSCAASGFTFSSYSMNWVRQAPGKGLEWVSSISSSSSYIYYADSVKGRFTISRDNAKNSLYLQMNSLRAEDTAVYYCARGAPIGAAAGWFDPWGQGTLVTVSSASTKGPSVFPLAPSSKSTSGGTAALGCLVKDYFPEPVTVSWNSGALTSGVHTFPAVLQSSGLYSLSSVVTVPSSSLGTQTYICNVNHKPSNTKVDKKVEPKSCDKTHTCPPCPAPELLGGPSVFLFPPKPKDTLMISRTPEVTCVVVDVSHEDPEVKFNWYVDGVEVHNAKTKPREEQYNSTYRVVSVLTVLHQDWLNGKEYKCKVSNKALPAPIEKTISKAKGQPREPQVCTLPPSRDELTENQVSLTCLVKGFYPSDIAVEWESNGQPENNYKTTPPVLDSDGSFFLYSWLTVDKSRWQQGNVFSCSVMHEALHNHYTQKSLSLSPG
light: DIQMTQSPSSVSASVGDRVTITCRASQGISSWLAWYQQKPGKAPKLLIYAASSLQSGVPSRFSGSGSGTDFTLTISSLQPEDFATYYCQQGVSFPRTFGGGTKVEIKRTVAAPSVFIFPPSDEQLKSGTASVVCLLNNFYPREAKVQWKVDNALQSGNSQESVTEQDSKDSTYSLSSTLTLSKADYEKHKVYACEVTHQGLSSPVTKSFNRGEC
notes: Trispecific F3' format: CLEC12A scFv-Fc paired with NKG2D Fab-Fc; Stressed and control samples of the stability studies are the same molecule; also called AB0237
Q: B1 was tested. Which Kd [1] did it give?
A: Its Kd is 675 nM.

Q: What about the koff [1] of the same binder?
A: The koff was 0.127 s⁻¹.

Q: And the kon [1]?
A: The kon was 188000 M⁻¹ s⁻¹.

Q: And the Kd [2]?
A: The Kd was 0.98 nM.

Q: And the koff [2]?
A: The koff was 0.000735 s⁻¹.

Q: What about the kon [2] of the same binder?
A: Its kon is 750000 M⁻¹ s⁻¹.

B2: AB0192 TriNKET (other)
chain: EVQLVESGGGVVQPGGSLRLSCAASGFTFNAFGMHWVRQAPGKCLEWVAFISSGSTSIYYANTVKGRFTISRDNSKNTLYLQMNSLRAEDTAVYYCARDGYPTGGAMDYWGQGTSVTVSSGGGGSGGGGSGGGGSGGGGSDIQMTQSPSSLSASVGDRVTITCKASQDIYNYLSWFQQKPGKAPKPLIYRANILVSGVPSRFSGSGSGQDYTFTISSLQPEDIATYYCLQFDAFPFTFGCGTKLEIKGSDKTHTCPPCPAPELLGGPSVFLFPPKPKDTLMISRTPEVTCVVVDVSHEDPEVKFNWYVDGVEVHNAKTKPREEQYNSTYRVVSVLTVLHQDWLNGKEYKCKVSNKALPAPIEKTISKAKGQPREPRVYTLPPCRDELTKNQVSLTCLVKGFYPSDIAVEWESNGQPENNYKTTPPVLVSDGSFTLYSKLTVDKSRWQQGNVFSCSVMHEALHNHYTQKSLSLSPG
heavy: B1 heavy
light: B1 light
notes: the condition stands under assay; also called AB0192 Lot AB0192-005
Q: Which results are given for B2?
A: Kd [3]: 574 nM; koff [3]: 0.12 s⁻¹; kon [3]: 210000 M⁻¹ s⁻¹; Kd [4]: 192 nM; koff [4]: 0.0208 s⁻¹; kon [4]: 108000 M⁻¹ s⁻¹; Kd [5]: 1.65 nM; koff [5]: 0.0013 s⁻¹; kon [5]: 787000 M⁻¹ s⁻¹; Kd [6]: 1.72 nM and 1.99 nM and 1.71 nM; koff [6]: 0.00136 s⁻¹ and 0.00151 s⁻¹ and 0.00134 s⁻¹; kon [6]: 787000 M⁻¹ s⁻¹ and 757000 M⁻¹ s⁻¹ and 785000 M⁻¹ s⁻¹; EC50 [7]: 0.91 nM

B3: AB0089 TriNKET (bispecific antibody, human IgG1, kappa)
chain: B1 chain with S53V, K56A, K71V, Y98G, D101G, S103T, R207D, I220F
heavy: B1 heavy
light: B1 light
notes: F3' format heterodimer of three chains; human IgG1 Fc with EW-RVT and Y349C/S354C mutations; also called AB0089 Lot AB0089-002; CLEC12A TriNKET AB0089
Q: How did the Kd [8] turn out when B3 was run?
A: The Kd was 342 nM.

Q: What about the koff [8] of the same binder?
A: Its koff is 0.0284 s⁻¹.

Q: And the kon [8]?
A: Its kon is 83100 M⁻¹ s⁻¹.

Q: And the Kd [9]?
A: Its Kd is 791 nM.

Q: And the koff [9]?
A: Its koff is 0.126 s⁻¹.

Q: What about the kon [9] of the same binder?
A: The kon was 160000 M⁻¹ s⁻¹.

Q: What about the kon [10] of the same binder?
A: The kon was 1.11e+07 M⁻¹ s⁻¹.

Q: And the Kd [11]?
A: The Kd was 6.4 nM and 4.7 nM and 4.1 nM and 5.2 nM.

Q: And the koff [11]?
A: Its koff is 0.00018 s⁻¹ and 0.00022 s⁻¹ and 0.00019 s⁻¹ and 0.00024 s⁻¹.

Q: And the kon [11]?
A: The kon was 44000 M⁻¹ s⁻¹ and 46000 M⁻¹ s⁻¹.

Q: And the Kd [12]?
A: The Kd was 359 nM.

Q: And the koff [12]?
A: The koff was 0.0284 s⁻¹.

Q: And the kon [12]?
A: The kon was 79300 M⁻¹ s⁻¹.

Q: What about the Kd [13] of the same binder?
A: The Kd was 796 nM.

Q: What about the koff [13] of the same binder?
A: The koff was 0.132 s⁻¹.

Q: And the kon [13]?
A: Its kon is 166000 M⁻¹ s⁻¹.

B4: F3'-1602 TriNKET (other)
chain: B1 chain
heavy: B1 heavy
light: B1 light
notes: CLEC12A scFv-Fc, NKG2D A49MI Fab-Fc, human IgG1 Fc; also called AB0237
Q: For B4, which EC50 [14] is on record?
A: The EC50 was 14.4 nM.

Q: What about the “Max MFI” value [14] of the same binder?
A: Its value is 50200 MFI.

Source: patent US20220119534A1 (DRAGONFLY THERAPEUTICS, published 2022)
